According to patent EP1222208B1 (THE GENERAL HOSPITAL CORPORATION, dated 2008):
“And” between values parts separate entries of the source, which are not always exact repeats. Equal values may be shown once. Square brackets hold non-standard residues; d marks the D form. Ends that are not written are not given here. Nle = CCCC[C@H](N)C(=O)O

T1: human PTH-1 receptor (human, UniProt Q03431 27-593)
T1 sequence (looked up): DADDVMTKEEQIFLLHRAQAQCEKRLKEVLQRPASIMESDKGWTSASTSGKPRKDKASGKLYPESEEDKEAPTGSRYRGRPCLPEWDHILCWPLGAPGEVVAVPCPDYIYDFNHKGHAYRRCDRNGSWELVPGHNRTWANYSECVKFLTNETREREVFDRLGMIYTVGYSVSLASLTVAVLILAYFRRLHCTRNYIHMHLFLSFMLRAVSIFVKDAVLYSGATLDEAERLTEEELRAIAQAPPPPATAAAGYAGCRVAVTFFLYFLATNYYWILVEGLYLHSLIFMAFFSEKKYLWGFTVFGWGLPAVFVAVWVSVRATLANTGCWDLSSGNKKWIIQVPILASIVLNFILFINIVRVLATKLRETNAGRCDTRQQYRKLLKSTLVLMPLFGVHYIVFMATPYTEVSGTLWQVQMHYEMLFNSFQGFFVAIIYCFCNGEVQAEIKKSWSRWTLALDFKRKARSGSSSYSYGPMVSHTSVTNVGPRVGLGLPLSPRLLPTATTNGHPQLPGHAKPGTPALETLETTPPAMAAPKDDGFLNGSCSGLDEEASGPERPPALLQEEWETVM

T2: rat PTH-1 receptor (rat, UniProt P25961 27-591)
T2 sequence (looked up): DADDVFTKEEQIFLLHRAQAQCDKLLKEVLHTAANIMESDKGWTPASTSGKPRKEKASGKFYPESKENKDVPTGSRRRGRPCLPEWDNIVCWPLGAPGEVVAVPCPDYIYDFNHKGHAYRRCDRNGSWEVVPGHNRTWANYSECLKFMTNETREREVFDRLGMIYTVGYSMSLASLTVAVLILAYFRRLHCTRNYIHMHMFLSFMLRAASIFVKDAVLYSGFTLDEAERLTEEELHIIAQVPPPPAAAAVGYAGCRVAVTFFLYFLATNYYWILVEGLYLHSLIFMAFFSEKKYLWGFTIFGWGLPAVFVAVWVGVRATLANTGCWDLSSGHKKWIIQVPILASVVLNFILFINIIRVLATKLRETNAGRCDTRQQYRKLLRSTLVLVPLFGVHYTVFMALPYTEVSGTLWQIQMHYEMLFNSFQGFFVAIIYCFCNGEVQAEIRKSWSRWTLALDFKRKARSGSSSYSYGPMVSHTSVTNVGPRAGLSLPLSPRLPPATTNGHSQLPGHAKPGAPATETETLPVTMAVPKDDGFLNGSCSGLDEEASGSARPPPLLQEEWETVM


What was measured:
Test in all cases: cell-based or functional assay
human PTH-1 receptor [1] = molecular target: T1, human PTH-1 receptor
human PTH-1 receptor [2] = molecular target: T1, human PTH-1 receptor; remark: listed apart in the source
rat PTH-1 receptor = molecular target: T2, rat PTH-1 receptor
human PTH-2 receptor = human PTH-2 receptor (human, UniProt P49190 25-550)
Sequence of human PTH-2 receptor (P49190 25-550): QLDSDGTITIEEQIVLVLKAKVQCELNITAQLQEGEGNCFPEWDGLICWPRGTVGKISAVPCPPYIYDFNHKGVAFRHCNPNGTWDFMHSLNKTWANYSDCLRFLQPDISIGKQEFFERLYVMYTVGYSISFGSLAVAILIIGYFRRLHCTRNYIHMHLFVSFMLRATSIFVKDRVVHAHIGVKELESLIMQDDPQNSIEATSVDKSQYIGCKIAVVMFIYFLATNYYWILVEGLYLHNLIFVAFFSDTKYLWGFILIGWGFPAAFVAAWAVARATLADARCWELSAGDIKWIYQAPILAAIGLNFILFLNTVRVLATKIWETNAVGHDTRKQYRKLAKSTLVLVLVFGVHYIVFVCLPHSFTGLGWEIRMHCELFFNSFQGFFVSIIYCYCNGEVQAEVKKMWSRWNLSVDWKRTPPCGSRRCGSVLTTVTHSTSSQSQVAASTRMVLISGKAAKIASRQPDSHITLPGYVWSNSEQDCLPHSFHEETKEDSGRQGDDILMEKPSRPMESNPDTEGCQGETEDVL

human PTH-1 receptor [3] = molecular target: T1, human PTH-1 receptor; remark: listed apart in the source
[4] = molecular target: truncated human PTH-1 receptor hΔNt (human), Q03431
human PTH-1 receptor [5] = molecular target: T1, human PTH-1 receptor; remark: listed apart in the source

| Binder | cAMP EC50, HKRK-B7 cells (human PTH-1 receptor [1]) | cAMP potency relative to native PTH(1-14), LLC-PK1 cells stably expressing the hPTH-1 receptor (human PTH-1 receptor [2]) | cAMP EC50, ROS 17/2.8 cells (rat PTH-1 receptor) | cAMP EC50, LLC-P2R-22 cells (human PTH-2 receptor) | cAMP EC50, COS-7 cells, WT hPTH-1 receptor (human PTH-1 receptor [3]) | cAMP Emax, COS-7 cells, WT hPTH-1 receptor (human PTH-1 receptor [3]) | cAMP Emax, COS-7 cells, hDeINt (picomole/well) [4] | cAMP EC50, SAOS-2 cells (human PTH-1 receptor [5]) | cAMP potency relative to native PTH(1-14), truncated hPTH-1 receptor [4] | cAMP potency relative to native PTH(1-14), LLC-PK-1 cells stably expressing the hPTH-1 receptor (human PTH-1 receptor [2]) |
| --- | --- | --- | --- | --- | --- | --- | --- | --- | --- | --- |
| AVAEIQLMHARAKW-NH2 [[A3,A10,R11,A12,W14]rPTH(1-14)amide] | -6.3 Log M and 0.6 µM | 220 fold | -5.5 Log M | – | – | – | – | – | – | – |
| AVAEIQLMHARA-NH2 [[A3,A10,R11,A12]rPTH(1-12)] | -5 Log M and 10.2 µM | – | – | -3.5 Log M and 342 µM | – | – | – | – | – | – |
| AVAEIQLMHARAKH-NH2 [[A3,A10,R11,A12]rPTH(1-14)amide] | -6.1 Log M and 0.83 µM | 160 fold | – | -3.9 Log M and 126 µM | -6 Log M and 4.66 µM | 243 picomole/well | 250 | – | 100 fold | 100 fold |
| AVAEIQLMHARAK-NH2 [[A3,A10,R11,A12]rPTH(1-13)] | -5.6 Log M and 2.4 µM | – | – | -4 Log M and 106 µM | – | – | – | – | – | – |

Other lines, results leading:

| cAMP EC50, HKRK-B7 cells (human PTH-1 receptor [1]) | cAMP potency relative to native PTH(1-14), LLC-PK1 cells stably expressing the hPTH-1 receptor (human PTH-1 receptor [2]) | cAMP EC50, ROS 17/2.8 cells (rat PTH-1 receptor) | cAMP EC50, LLC-P2R-22 cells (human PTH-2 receptor) | cAMP EC50, COS-7 cells, WT hPTH-1 receptor (human PTH-1 receptor [3]) | cAMP Emax, COS-7 cells, WT hPTH-1 receptor (human PTH-1 receptor [3]) | cAMP Emax, COS-7 cells, hDeINt (picomole/well) [4] | cAMP EC50, SAOS-2 cells (human PTH-1 receptor [5]) | cAMP potency relative to native PTH(1-14), truncated hPTH-1 receptor [4] | cAMP potency relative to native PTH(1-14), LLC-PK-1 cells stably expressing the hPTH-1 receptor (human PTH-1 receptor [2]) | Binder |
| --- | --- | --- | --- | --- | --- | --- | --- | --- | --- | --- |
| -6.1 Log M and 0.8 µM | – | – | – | – | – | – | – | – | – | AVAEIQLMHQRAKH-NH2 [[A3,Q10,R11,A12]rPTH(1-14)] |
| -8.6 Log M and 0.0033 µM | – | – | -8.4 Log M and 0.0044 µM | -9.2 Log M and 0.0007 µM | 226 picomole/well | 243 | – | – | – | AVSEIQL[Nle]HNLGKHLASVER[Nle]QWLRKKLQDVHNY-NH2 [[Nle^8,21,Tyr^34]-rPTH(1-34)NH2] |
| -3.9 Log M and 133 µM | – | – | – | -3.8 Log M and 152 µM | 221 picomole/well | 222 | – | – | – | AVSEIQLMHNLGKH-NH2 [native rat (r)PTH(1-14)NH2] |
| -8.4 Log M and 0.004 µM | – | – | – | -9.3 Log M and 0.0005 µM | 226 picomole/well | 238 | -9.28 Log M and 0.00052 µM | – | – | SVSEIQLMHNLGKHLNSMERVEWLRKKLQDVHNY-NH2 [[Tyr^34]human (h)PTH(1-34)NH2] |
| -4.8 Log M and 17.1 µM | – | – | – | -4.6 Log M and 29.1 µM | 238 picomole/well | 243 | – | – | – | AVAEIQLMHAR-NH2 [[A3,A10,R11]rPTH(1-11)] |
